This data set is described as follows: soluble on expression in E. coli; label from the status in PepcDB or PDB records.
For the sequence “MSLEGEQHSRERDQQAIQYHYDVSNDFYKLWLDERMVYSCAYFPGGQETLDEAQTAKLDYICRKLQLRPGERLLDIGCGWGGLSLYAAQHYGVQVLGVTLSQAQLQEGQARVRVAGLEGQVQLELRDYRDVLSRGPAQFDKIASVGMAEHVGRRNMPEYFRSAYAALKPGGLMLNHAIGDGIGQARVPMWLQSGNFARKYVFPDGELLPVWETLKYASEQLFEVRDVENLREHYALTIGHWAARLEAHRPEALALLGEERLRLWRLYLGATSYYFRKGHLTLFQSLLAKPDAERAVPLPLSRAGLYREGHHHHHH”, the “soluble on expression in E. coli” value is recorded as “soluble”.

On to “MAHHHHHHMLTKDADCEKSQQQKLEEDIKSPCTPSFHWVSDEDPKSDRATNHGCAKPLDWSPQTPETPPMSVAELRVTTVADTSETETTSESATHGNELRANEGESSASGTLEKPAGGVAAAGGAAPAAVPQKTEERGSSVPLKHKRSYGASDAVSSSSCHVDALGDLAGSVRQHHPTSTHTLDTSSSNGVGDAAKHAVAAGHVDESLPPPLSGVFFPFTACDAVTTASLVTLISSYCDVLTLVQLMRVNRSAHLLATSDAVWKPLLVSMNLPPLLAAYERDNDYYDFFVKDIITTRALHGHYTFQAANAASGSRESVSTTSGSRSAVMNRNYVSRDEDSLQDDIFNIASLQLLISAASLGQSNHLIGRVQLLITYKNESMEVLQGSCRFSVHRRCFSLCCSAFGTVKRGPVFTVAVATVTKPWANEGFQHFREHKNGIRLVMAPVLWEGPSPGSQITENDILVVSRPKPVPSLITSTTGSAAANSSLGAPTASRG”, for which the “soluble on expression in E. coli” value is “not soluble”.

On to “MGSRASTLLRDEELEEIKKETGFSHSQITRLYSRFTSLDKGENGTLSREDFQRIPELAINPLGDRIINAFFSEGEDQVNFRGFMRTLAHFRPIEDNEKSKDVNGPEPLNSRSNKLHFAFRLYDLDKDDKISRDELLQVLRMMVGVNISDEQLGSIADRTIQEADQDGDSAISFTEFVKVLEKVDVEQKMSIRFLHKLAAALEHHHHHH”, for which the “soluble on expression in E. coli” value is listed as “soluble”.

In the case of “MIRLLTLLALLLPVPGWAGCRQALALGLDVSGSVDGREYRLQLDGLAAALLAPEVQARLLAMPGHPIRLAVYEWSEPGFQRLILPWHQIDTAADLETVAATLRTTRRAAAPPGTAIGPAMHHGAALLAQQPDCWKRTLDLSGDGKHNMGPHPRVVKAALEGSGLTVNALVIGADSTTFTDLRQTQIGELSAYYGAWVILGPDAFVEVALGYEDYQAAMERKLRRELEGLVLSALPTRAATQLHAPVLPWPVLPQAAALEHHHHHH”, the “soluble on expression in E. coli” value is reported as “not soluble”.

In the case of “MSIEQYFQHLACAPTSLNLIWFTVEMSELAKELPSKEAKTGLIKSIAHILHDEKFEKIRGDEAMLNLFEMLAKCSTKIGGAEVYKQAYGLDLFNYYKEFYFQWAHECGKIKSVSQFRTVFFLARSQLFYHLSPISIEKDFENIFQQYFGKLSMHHCLERTETLNKLFAGCSVEEFASAENVMSFGNSRELSGRSVDVRPNHRVLEVARGTMMSSSEISPNKSDSSVLLNKSPPTNSPIIKFGTYPKIHLQNVSSSMLNARRRQLTATVTTVDSQKGKPTFANETY”, the “soluble on expression in E. coli” value is on record as “not soluble”.

“AHHHHHHGSKIARVNGLWITIPNVRYSFFNTPYIGHRIGTAVDVYFEDRALFPFEEGKLIEVRKIRTPRYIPVDHDYLMVFKLGEFCLKVLHVDPSVKIGEKVFLGDEIGKLRLSGFFSPWSDKHAHFEVRDCNDRYRARGAFPLFPEVKPLVPIVKGNTFEVVERKGHYLWLKPLETKGKGMTPLGNIEGGLPHYRYGAIFSGREGKLFGIDVKAQEILENGVGIFKPNFEVLANGVKVRGIGVYCNEERVKLIGGNFEVGDIIKIEIKARLGT”: the “soluble on expression in E. coli” value is recorded as “not soluble”.

Source of the values: the DeepSol protein solubility set.
